The text below walks through data of US20150050213A1, “COMPOSITIONS AND METHODS FOR IMAGING INFLAMMATION OF TRAUMATIC BRAIN INJURY” (University of Virginia Patent Foundation, priority 2013, published 2015).

Usually Kd stands for the concentration at which binding is half-saturated.

In data set [1] the target is T1, neutrophil N-formylpeptide receptor (Homo sapiens, UniProt P21462).
T1 sequence (P21462 1-350): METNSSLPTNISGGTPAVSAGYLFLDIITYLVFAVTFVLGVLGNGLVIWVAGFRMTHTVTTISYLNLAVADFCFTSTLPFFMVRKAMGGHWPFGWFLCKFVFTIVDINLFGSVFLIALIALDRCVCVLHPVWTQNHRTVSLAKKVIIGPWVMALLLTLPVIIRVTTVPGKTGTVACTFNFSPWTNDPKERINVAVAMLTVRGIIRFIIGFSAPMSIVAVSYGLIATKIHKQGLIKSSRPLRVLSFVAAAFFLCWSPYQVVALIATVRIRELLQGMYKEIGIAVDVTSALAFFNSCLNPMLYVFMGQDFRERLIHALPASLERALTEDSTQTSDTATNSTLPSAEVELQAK
As to conditions: reported in the literature; cited from earlier work.

For data set [2] the following is noted: reported; poor imaging quality due to lipophilicity; cited from earlier work.
In another data set the target is T2, FPR (Homo sapiens, UniProt P21462).
T2 construct: endogenous in cells; host or cells: human neutrophils
T2 sequence (P21462 1-350): T1 sequence (P21462 1-350)
As to conditions: human neutrophils; Locke et al. 2009; cited from earlier work.

The subject of data set [3] is infiltrating neutrophils. The data set can be described thus: neutrophil co-localization immunohistochemistry after CCI TBI. It is filed as in vivo. The note with it: CCI TBI rats, 12 hours post-injury. The method, then:
Neutrophil co-localization: Rats underwent CCI injury as described above and were immediately injected with cFLFLF-PEG-Cy5 through a tail vein catheter. Animals were sacrificed 12 hours post-injection and perfused with 200 cc of a 10% sucrose wash and 200 cc of 4% paraformaldehyde. After four hours, animals were perfused with a 30% sucrose cryoprotectant. Brains were then removed and sectioned at a thickness of […]. Sections were incubated in rabbit anti-rat neutrophil elastase (abcam 21595) at a dilution of 1:200 overnight at 4° C. Next, sections were washed three times in PBS and then incubated in alexa fluor 488 goat anti-rabbit antibody at a 1:200 dilution at room temperature for two hours. Sections were washed three times in PBS. Vectashield mounting medium with DAPI was applied to each section with a cover slip. Slides were assessed with a Zeiss Axioimager Z1 microscope equipped with the Apotome module. Photomicrographs were acquired using the Zeiss Zen 2011 software (FIG. 2).

The target of data set [4] is T3, neutrophil receptor (formyl peptide receptor, FPR) (Homo sapiens, UniProt P21462).
T3 construct: endogenous in cells; host or cells: human neutrophils
T3 sequence (P21462 1-350): T1 sequence (P21462 1-350)
The note with it: human neutrophils; Zhang et al. 2007; cited from earlier work.

Another data set deals with neutrophils. As to conditions: superoxide stimulation assays; Locke et al.; cited from earlier work.
Data set [5] deals with infiltrating neutrophils. On the set-up: species or system Sprague-Dawley rats. As to conditions: rat, in vivo. The protocol: Sprague-Dawley rats (N=3/experimental group) underwent moderate-severe experimental controlled cortical impact (CCI) trauma brain injury (TBI) or SHAM preparation. Animals were sacrificed 12, 24, or 48 hours post-injury, a tail vein catheter was inserted 12 hr prior to sacrifice, and each animal received a 2 mCi dose of cFLFLF-PEG-^64Cu. Radiopharmaceutical was allowed to circulate for 12 hrs prior to sacrifice. Brains were removed and unfixed, […] frozen sections were collected on a Leica CM3050S cryostat. Sections were collected onto slides and placed on radiosensitive FujiFilm SR imaging plates for 12 hours. Each screen was read with a GE Typhoon FLA9000 phosphor imager at a pixel size of […]. Average intensity values from seven ROIs (FIG. 5B-5G) were measured from 20 brain sections that included the entirety of the contusion volume. Values were normalized to the corrected dose of radiation and animal body weight. Average intensity values of each ROI were compared to the contralateral anatomical region in each of the SHAM, 12, 24 hour, and 48 hour experimental groups. Phosphor imaging is a standard technique for determining whether a labeled ligand is suitable for PET imaging and positive results are an indicator that the labeled ligand is indeed useful for PET imaging.

The conditions of data set [6]: mouse, in vivo; cited from earlier work.

Take cF(D)LF(D)LF [cFLFLF]: the “affinity for the neutrophil N-formylpeptide receptor” value in data set [1] is “high affinity”. Further, in data set [2], the liver uptake entry is “high liver uptake”. The Kd on FPR is 2 nM.
Consider “cinnamoyl-F(D)LF(D)LFK-polyethylene glycol [cFLFLF-PEG]”, for which the “co-localization with neutrophil markers” value in the data set with infiltrating neutrophils [3] is reported as “localizes to infiltrating neutrophils within brain parenchyma”.
For “cinnamoyl-F(D)LF(D)LFK-polyethylene glycol-DOTA-64Cu [cFLFLF-PEG-^64Cu]”, the Kd in data set [4] was 5.7 nM. In addition, the “biologic activity toward neutrophils” value in the data set with neutrophils was “no biologic activity toward neutrophils”. Also, the Kd at FPR is 17.7 nM. In addition, in the data set with infiltrating neutrophils [5], the “post-injury time point of most prominent uptake” value came out at 12 h; the “time of statistically significant peak uptake, ratio ipsilateral to contralateral, caudate and putamen” value is 12 h; the “time of statistically significant peak uptake, ratio ipsilateral to contralateral, corpus callosum” value worked out at 12 h; the “time of statistically significant peak uptake, ratio ipsilateral to contralateral, cortex” value was 12 and 24 hour. Further, in the data set on infiltrating neutrophils [5], the “time of statistically significant peak uptake, ratio ipsilateral to contralateral, hemisphere” value was 12 h; the “time of statistically significant peak uptake, ratio ipsilateral to contralateral, hippocampus” value came out at 12 h; the “uptake within cerebrospinal fluid (CSF) in the ventricles” value was “intense uptake”. Also, the mean biologic half-life in data set [6] is on record as 55±8 min.
